125 sequences from the supplement of paper PMC9112550, “Optimization of the antimicrobial peptide Bac7 by deep mutational scanning” (BMC Biology, 2022) can be followed below.

This series concerns Escherichia coli TOP10. Nature of the series: shrunken log2 fold change of peptide-encoding DNA abundance (4.5 h post-induction vs induction); higher = less antimicrobial activity (less host growth inhibition). The conditions noted are these: time post-induction: 4.5 h; library: site-saturation at positions 5, 18, 19, 20.
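Also: peptides expressed intracellularly from a pBAD plasmid library in pooled LB shake-flask culture, induced with 0.3% L-arabinose, DNA abundance read by NGS, three biological replicates, DESeq2 with apeglm shrinkage.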

Regarding RRIRRRPPRLPRPRPRPEKQPRP, the “shrunken log2 fold change” value came to 0.147. Take RRIRHRPPRLPRPRPRPQLAPRP: the “shrunken log2 fold change” value came to 0.0733. Under RRIRYRPPRLPRPRPRPYVKPRP stands -1.12. For RRIRGRPPRLPRPRPRPDVIPRP the value was 0.68; for RRIRWRPPRLPRPRPRPGDRPRP, 0.468. Under RRIRRRPPRLPRPRPRPAQHPRP stands 0.369; under RRIRFRPPRLPRPRPRPTHWPRP, 0.44; under RRIRQRPPRLPRPRPRPSVNPRP, -0.642. Consider RRIRYRPPRLPRPRPRPGSRPRP, for which the “shrunken log2 fold change” value was -0.3.

On to RRIRVRPPRLPRPRPRPDHSPRP, for which the “shrunken log2 fold change” value was -0.252. Under RRIRDRPPRLPRPRPRPEGPPRP stands 1.51; under RRIRCRPPRLPRPRPRPWNFPRP, -0.182. For RRIRIRPPRLPRPRPRPEYRPRP the value was -1.12; for RRIRLRPPRLPRPRPRPWSGPRP, -0.000803; for RRIRHRPPRLPRPRPRPYIEPRP, -0.68.

In the case of RRIRQRPPRLPRPRPRPVGPPRP, the “shrunken log2 fold change” value stood at 0.231. Consider RRIRSRPPRLPRPRPRPDEHPRP, for which the “shrunken log2 fold change” value was -0.125. Under RRIRRRPPRLPRPRPRPKGIPRP stands 0.268; under RRIRCRPPRLPRPRPRPTNWPRP, -0.0072. For RRIRFRPPRLPRPRPRPAWSPRP the value was 0.116; for RRIRYRPPRLPRPRPRPQPKPRP, -0.0232; for RRIRVRPPRLPRPRPRPEGCPRP, 0.132. Consider RRIRQRPPRLPRPRPRPDCKPRP, for which the “shrunken log2 fold change” value was -0.0311. For RRIRGRPPRLPRPRPRPYVKPRP the value was -0.417. For RRIRCRPPRLPRPRPRPAFWPRP the value was 0.232; for RRIRRRPPRLPRPRPRPVRTPRP, 0.328. As for RRIRQRPPRLPRPRPRPAEFPRP, the “shrunken log2 fold change” value was -0.0119. For RRIRDRPPRLPRPRPRPDKLPRP the value was -0.0536; for RRIRLRPPRLPRPRPRPPCTPRP, 0.036. For RRIRPRPPRLPRPRPRPYPFPRP the value was -0.0133; for RRIRERPPRLPRPRPRPGDCPRP, -0.0777; for RRIRCRPPRLPRPRPRPYYEPRP, -1.27. Under RRIRDRPPRLPRPRPRPSGAPRP stands 0.0348; under RRIRCRPPRLPRPRPRPYKKPRP, 0.104.

Regarding RRIRIRPPRLPRPRPRPQEMPRP, the “shrunken log2 fold change” value was -0.379. Under RRIRMRPPRLPRPRPRPTLAPRP stands 1.35.

In the case of RRIRCRPPRLPRPRPRPYMWPRP, the “shrunken log2 fold change” value is -0.913. On to RRIRWRPPRLPRPRPRPTHPPRP, for which the “shrunken log2 fold change” value stood at 0.709.

Regarding RRIRGRPPRLPRPRPRPVDDPRP, the “shrunken log2 fold change” value was 0.882. For RRIRCRPPRLPRPRPRPMYQPRP the value was -0.265.

Turning to RRIRQRPPRLPRPRPRPQPCPRP, the “shrunken log2 fold change” value came to 0.149.

Consider RRIRCRPPRLPRPRPRPNGVPRP, for which the “shrunken log2 fold change” value is -0.216.

On to RRIRSRPPRLPRPRPRPHYPPRP, for which the “shrunken log2 fold change” value was -0.615. For RRIRERPPRLPRPRPRPRWYPRP the value was -0.464. Under RRIRWRPPRLPRPRPRPMLLPRP stands 0.259; under RRIRGRPPRLPRPRPRPSDRPRP, 0.137; under RRIRQRPPRLPRPRPRPLVTPRP, -0.122. Under RRIRHRPPRLPRPRPRPFAEPRP stands -0.0659.

With RRIRPRPPRLPRPRPRPACWPRP, the “shrunken log2 fold change” value stood at 0.671. For RRIRCRPPRLPRPRPRPWWAPRP the value was 1.27; for RRIRARPPRLPRPRPRPRYRPRP, 0.165. In the case of RRIRHRPPRLPRPRPRPCRPPRP, the “shrunken log2 fold change” value came to 0.0355. Under RRIRARPPRLPRPRPRPMYTPRP stands -0.0517; under RRIRYRPPRLPRPRPRPSNHPRP, -0.29; under RRIRQRPPRLPRPRPRPDFPPRP, 0.065. For RRIRYRPPRLPRPRPRPYQHPRP the value was -1.87; for RRIRNRPPRLPRPRPRPWFDPRP, -0.876. Under RRIRTRPPRLPRPRPRPKHWPRP stands 0.441; under RRIRWRPPRLPRPRPRPQFTPRP, -0.313. With RRIRDRPPRLPRPRPRPETFPRP, the “shrunken log2 fold change” value amounted to 0.00902.

Regarding RRIRMRPPRLPRPRPRPRKEPRP, the “shrunken log2 fold change” value stood at 0.704. Under RRIRIRPPRLPRPRPRPNQWPRP stands -0.422; under RRIRFRPPRLPRPRPRPHWIPRP, -0.151.

As to RRIRERPPRLPRPRPRPMTAPRP, the “shrunken log2 fold change” value is -0.0417. For RRIRTRPPRLPRPRPRPEDGPRP the value was 0.0244.

As for RRIRHRPPRLPRPRPRPVFAPRP, the “shrunken log2 fold change” value was found to be 0.12. For RRIRARPPRLPRPRPRPDLLPRP the value was 0.0805. For RRIRKRPPRLPRPRPRPKIHPRP, the “shrunken log2 fold change” value was -0.152. For RRIRRRPPRLPRPRPRPKGWPRP the value was 0.439; for RRIRTRPPRLPRPRPRPNNAPRP, -0.303. RRIRTRPPRLPRPRPRPEHYPRP: the “shrunken log2 fold change” value was -0.0177. Under RRIRYRPPRLPRPRPRPQQGPRP stands -0.34; under RRIRCRPPRLPRPRPRPPNNPRP, -0.138; under RRIRSRPPRLPRPRPRPNGDPRP, -0.0155.

For RRIRPRPPRLPRPRPRPEPSPRP, the “shrunken log2 fold change” value came to 0.314. For RRIRERPPRLPRPRPRPVSHPRP, the “shrunken log2 fold change” value was -0.0904. Under RRIRDRPPRLPRPRPRPKDTPRP stands 0.0607; under RRIRHRPPRLPRPRPRPTGGPRP, 0.0928. Take RRIRFRPPRLPRPRPRPQRPPRP: the “shrunken log2 fold change” value was determined as 0.203.

RRIRKRPPRLPRPRPRPDMMPRP: the “shrunken log2 fold change” value stood at 1.43.

As to RRIRKRPPRLPRPRPRPHYAPRP, the “shrunken log2 fold change” value is -0.0144. Under RRIRWRPPRLPRPRPRPGTDPRP stands 0.216; under RRIRHRPPRLPRPRPRPAFGPRP, 0.105. For the sequence RRIRCRPPRLPRPRPRPDFSPRP, the “shrunken log2 fold change” value is -0.377. Under RRIRPRPPRLPRPRPRPCRHPRP stands -0.0363; under RRIRLRPPRLPRPRPRPPMVPRP, -0.192.

Take RRIRHRPPRLPRPRPRPPSIPRP: the “shrunken log2 fold change” value is -0.165.

For RRIRPRPPRLPRPRPRPTYHPRP, the “shrunken log2 fold change” value was -0.274. For RRIRVRPPRLPRPRPRPNHPPRP the value was -0.0266.

Regarding RRIRRRPPRLPRPRPRPPYWPRP, the “shrunken log2 fold change” value was 0.625. Under RRIRNRPPRLPRPRPRPALRPRP stands 0.0951; under RRIRLRPPRLPRPRPRPCDTPRP, -0.131; under RRIRNRPPRLPRPRPRPCWGPRP, -0.315. Take RRIRIRPPRLPRPRPRPNRKPRP: the “shrunken log2 fold change” value stood at 0.00157.

In the case of RRIRIRPPRLPRPRPRPHATPRP, the “shrunken log2 fold change” value was -0.0163.

For RRIRGRPPRLPRPRPRPAPHPRP, the “shrunken log2 fold change” value was found to be 0.95. For RRIRYRPPRLPRPRPRPTIHPRP the value was -1.2. For the sequence RRIRIRPPRLPRPRPRPGVYPRP, the “shrunken log2 fold change” value was -0.39. For RRIRCRPPRLPRPRPRPEGPPRP the value was 0.261; for RRIRHRPPRLPRPRPRPKIRPRP, -0.156. For RRIRRRPPRLPRPRPRPLANPRP the value was 0.42; for RRIRCRPPRLPRPRPRPEYSPRP, -0.38; for RRIRWRPPRLPRPRPRPVTDPRP, 0.105. Turning to RRIRMRPPRLPRPRPRPIQHPRP, the “shrunken log2 fold change” value was -0.124. Under RRIRNRPPRLPRPRPRPKVQPRP stands 0.341; under RRIRPRPPRLPRPRPRPTTWPRP, 0.176; under RRIRYRPPRLPRPRPRPMILPRP, -0.287. For RRIRGRPPRLPRPRPRPPEMPRP the value was 1.62; for RRIRNRPPRLPRPRPRPCCDPRP, -0.0282; for RRIRVRPPRLPRPRPRPQENPRP, -0.119.

As for RRIRKRPPRLPRPRPRPSPGPRP, the “shrunken log2 fold change” value was 0.26. For RRIRIRPPRLPRPRPRPIKIPRP the value was -0.0548; for RRIRYRPPRLPRPRPRPRDDPRP, -0.241; for RRIRGRPPRLPRPRPRPWLCPRP, 0.266.

Turning to RRIRSRPPRLPRPRPRPNSQPRP, the “shrunken log2 fold change” value is -0.118. For RRIRDRPPRLPRPRPRPHAQPRP the value was -0.0623.

In the case of RRIRWRPPRLPRPRPRPNHNPRP, the “shrunken log2 fold change” value is -0.681. For RRIRIRPPRLPRPRPRPMCIPRP the value was -0.232; for RRIRFRPPRLPRPRPRPPGKPRP, 0.2; for RRIRIRPPRLPRPRPRPMFWPRP, -0.128.

As to RRIRRRPPRLPRPRPRPNVDPRP, the “shrunken log2 fold change” value is -0.125.

For RRIRARPPRLPRPRPRPNYRPRP, the “shrunken log2 fold change” value was found to be 0.0835. For RRIRLRPPRLPRPRPRPQHWPRP the value was -0.044; for RRIRFRPPRLPRPRPRPRCKPRP, 0.0452; for RRIRTRPPRLPRPRPRPMKPPRP, -0.0805.
